The results in this text go back to patent US20070128627A1 (US Dept. of Health and Human Services, published 2007).

The target of one test is T1, VP16/GR (UniProt P06536 1-795).
T1 construct: Assayed with and without 1 µM Dex
T1 sequence: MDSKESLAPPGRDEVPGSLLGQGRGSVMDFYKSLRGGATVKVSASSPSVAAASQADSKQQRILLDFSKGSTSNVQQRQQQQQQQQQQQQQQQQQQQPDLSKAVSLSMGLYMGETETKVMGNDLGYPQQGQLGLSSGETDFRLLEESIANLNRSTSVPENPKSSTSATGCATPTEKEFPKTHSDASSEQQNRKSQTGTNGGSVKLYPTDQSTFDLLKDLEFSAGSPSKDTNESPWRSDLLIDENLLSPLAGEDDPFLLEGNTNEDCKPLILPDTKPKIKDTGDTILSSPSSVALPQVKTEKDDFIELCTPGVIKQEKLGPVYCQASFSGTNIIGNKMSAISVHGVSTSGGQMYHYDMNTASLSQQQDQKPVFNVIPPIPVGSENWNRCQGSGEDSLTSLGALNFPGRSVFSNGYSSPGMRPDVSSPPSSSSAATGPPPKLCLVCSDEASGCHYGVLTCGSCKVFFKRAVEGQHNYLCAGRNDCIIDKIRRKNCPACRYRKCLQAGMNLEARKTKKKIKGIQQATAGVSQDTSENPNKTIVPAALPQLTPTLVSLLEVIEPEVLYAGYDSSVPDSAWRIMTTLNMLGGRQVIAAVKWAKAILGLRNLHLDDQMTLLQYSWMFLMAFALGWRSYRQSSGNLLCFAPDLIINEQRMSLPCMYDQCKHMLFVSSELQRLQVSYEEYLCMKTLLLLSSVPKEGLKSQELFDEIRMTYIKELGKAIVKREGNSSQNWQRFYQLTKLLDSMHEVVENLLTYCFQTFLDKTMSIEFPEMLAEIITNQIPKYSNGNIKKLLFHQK
Description: mammalian two-hybrid ±1 µM Dex (FIG. 6B).

In the next test the target is T2, VP16/TIF2.4 (human, UniProt Q15596 624-1010).
T2 construct: Only the TIF2.4 fragment is present; The text gives no limits for it, so the whole TIF2 entry is named
T2 sequence: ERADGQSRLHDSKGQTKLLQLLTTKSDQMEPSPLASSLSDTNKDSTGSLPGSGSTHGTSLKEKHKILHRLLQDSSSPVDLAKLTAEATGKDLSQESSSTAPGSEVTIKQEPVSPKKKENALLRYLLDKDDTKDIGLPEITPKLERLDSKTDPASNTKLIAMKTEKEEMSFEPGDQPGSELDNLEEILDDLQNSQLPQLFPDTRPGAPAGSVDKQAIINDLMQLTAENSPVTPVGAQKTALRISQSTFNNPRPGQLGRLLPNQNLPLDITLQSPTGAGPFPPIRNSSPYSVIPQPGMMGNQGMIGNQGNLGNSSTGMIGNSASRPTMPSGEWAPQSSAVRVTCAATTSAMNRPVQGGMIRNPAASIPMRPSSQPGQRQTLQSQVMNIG
Description: mammalian two-hybrid in CV-1 cells, relative luciferase activity (FIG. 6A).

Description for VP16/TIF2.4: Triplicate samples of CV-1 cells were transiently transfected with VP16 or VP16/TIF2.4 in FIG. 6A experiments. […] After determining the relative luciferase activities as described in FIG. 2B and 2C, the average values±S.E.M. from 2-5 experiments were plotted.

B1: GAL/STAMP(623-834) (other)
chain: MKLLSSIEQACDICRLKKLKCSKEKPKCAKCLKNNWECRYSPKTKRSPLTRAHLTEVESRLERLEQLFLLIFPREDLDMILKMDSLQDIKALLTGLFVQDNVNKDAVTDRLASVETDMPLTLRQHRISATSSSEESSNKGQRQLTVSENTPKENSMKVREWNNKGGHCCKLETQELEPKFNLMQILQDNGNLSKMQARIAFSAYLQHVQIRLMKDSGGQTFSASWAAKEDEQMELVVRFLKRASNNLQHSLRMVLPSRRLALLERRRILAHQLGDFIIVYNKETEQMAEKKSKKKVEEEEEDGVNMENFQEFIRQASEAELEEVLTFYTQKNKSASVFLGTHSKISKNNNNYSDSGAKG
notes: domain: GAL-DBD; Expressed in CV-1 cells for the mammalian two-hybrid assay; also called Gal/6-6CL1
In the case of B1, the binding result with VP16/GR is listed as “no binding”. The “average fold increase above the VP16 control” value in the test with VP16/TIF2.4 is 11 fold.
